We go through one molecule from paper PMC2173742 (The Journal of Cell Biology, 2003).

Series [1] deals with the molecule itself. Put plainly: SEC + other: velocity sedimentation.
The target of series [2] is bovine Taxol-stabilized MTs (bovine) (UniProt Q6B856). Put plainly: co-sedimentation.

B1: Ase1p–MYC–6xHis (natural protein, budding yeast, UniProt P50275 1-885, looked up)
chain: METATSSPLPIKSRRNSENSGSTTVIPHMNPSLATPLTVSTMVNQSNSKEFMKLTPVRIRDFGSPLKNVSTNYHFLDSENGKGNTMDNMYRENFILISKDLEKLLENLNVIYQNIGYSNTEIITKEKIIFTTISNSIKQFFEQADEELKRLSAENGIEQDILNNILERINDPSGIKTIPDLYIRNAILLQESKTVPQSPKKPLSLLSKKAALDTAKKFVLGSFLPRLRDYLKSLITLKHLIQSVKENLPGLTEADNEAIAEFPELSTLTAYLLQIENGKGDIGLSMKFIIDNRKDILKGSAFKTINEESVKHMNEVIKIYEEEYERRFKSVLTKKVSISSICEQLGTPLATLIGEDFEQDLRSYGEEENSTSEIPNFHPVDRERMSKIDITLEKLQAIHKERADKKRLLMEQCQKLWTRLKISQEYIKTFMRNNSSLSTESLGRISKEVMRLEAMKKKLIKKLISDSWDKIQELWRTLQYSEESRSKFIIVFEELRNSATTLQEDELLLETCENELKRLEEKLTLYKPILKLISDFESLQEDQEFLERSSKDSSRLLSRNSHKILLTEEKMRKRITRHFPRVINDLRIKLEEADGLFDQPFLFKGKPLSEAIDIQQQEIEAKYPRCRVRMQRSKKGKCGANKENKVIKNTFKATESSIRVPIGLNLNDANITYKTPSKKTIQGLTKNDLSQENSLARHMQGTTKLSSPNRRATRLLAPTVISRNSKGNIERPTLNRNRSSDLSSSPRINHTHGEHAVKPRQLFPIPLNKVDTKGSHIPQLTKEKALELLKRSTGTTGKENVRSPERKSSLEDYAQKLSSPYKEPEHSIYKLSMSPEGKFQLNIQQKDIESGFDDTSMMEDENDKDFITWKNEQVSKLNGFSFTDI
Regarding B1, the “stoichiometry N” value in series [1] turned out to be 2. In series [2], the Kd worked out at 300 nM.

As a reminder, the stoichiometry N is a count of units in the complex or per binding partner. Usually Kd stands for a measure of binding affinity in units of concentration.
